# Tests used:
# [1] = target: Thioredoxin reductase from Sphingomonas sp. PAMC 26621 (SpTR) (Sphingomonas sp. PAMC 26621); test: SEC; Superdex 200 10/300 GL gel filtration in buffer D (50 mM sodium phosphate, pH 7.2, 100 mM NaCl); molecular weight against a protein standard mix
# [2] = target: Thioredoxin reductase from Sphingomonas sp. PAMC 26621 (SpTR) (Sphingomonas sp. PAMC 26621)
substance,measurement,setting,value
Thioredoxin reductase from Sphingomonas sp. PAMC 26621 (SpTR) (enzyme),stoichiometry N,[1],2
SpTrx F26Y mutant (natural protein),"Km of SpTR for SpTrx F26Y as substrate, 4°C (DTNB reduction at 412 nm, 50 nM SpTR, 0.1-10 μM Trx)",[2],1.17 µM
same,"Km of SpTR for SpTrx F26Y as substrate, 30°C (DTNB reduction at 412 nm, 50 nM SpTR, 0.1-10 μM Trx)",[2],0.6 µM
SpTrx F26A mutant (natural protein),"Km of SpTR for SpTrx F26A as substrate, 4°C (DTNB reduction at 412 nm, 50 nM SpTR, 0.1-10 μM Trx)",[2],6.8 µM
same,"Km of SpTR for SpTrx F26A as substrate, 30°C (DTNB reduction at 412 nm, 50 nM SpTR, 0.1-10 μM Trx)",[2],6.41 µM
"Thioredoxin from the psychrophilic Arctic bacterium Sphingomonas sp. PAMC 26621 (SpTrx), wild type (natural protein)","Km of SpTR for SpTrx as substrate, 4°C (DTNB reduction at 412 nm, 50 nM SpTR, 0.1-10 μM Trx)",[2],1.1 µM
same,"Km of SpTR for SpTrx as substrate, 30°C (DTNB reduction at 412 nm, 50 nM SpTR, 0.1-10 μM Trx)",[2],0.63 µM
SpTrx F26W mutant (natural protein),"Km of SpTR for SpTrx F26W as substrate, 4°C (DTNB reduction at 412 nm, 50 nM SpTR, 0.1-10 μM Trx)",[2],1.24 µM
same,"Km of SpTR for SpTrx F26W as substrate, 30°C (DTNB reduction at 412 nm, 50 nM SpTR, 0.1-10 μM Trx)",[2],0.66 µM

# Source: PMC8673628
